From the DeepSol protein solubility set

test: soluble on expression in E. coli; label from the status in PepcDB or PDB records

Which “soluble on expression in E. coli” value does the source give for “KIDDGTELKLKGEKLRYVSRGGLKLEKALAVFNLSVEDMITIDIGASTGGFTDVMLQNGAKLVYAVDVGTNQLVWKLRQDDRVRSMEQYNFRYAEPVDFTEGLPSFASIDVSFISLNLILPALAKILVDGGQVVALVKPQFEAGREQIGKNGIVRESSIHEKVLETVTAFAVDYGFSVKGLDFSPIQGGHGN” here?
The value was “not soluble”.

Which “soluble on expression in E. coli” value does the source give for “MGSDKIHHHHHHMADETISLDYYAPRFRVEIDGETIPQDGIVSVEVDETLDAPAMVSLAFNETLDPRSQTFAWLDNPKLVPGAEVKVFLGYTGRAVPAPKPLFEGRLHTLTPAFQNSGVPSLMVQGYDHSHGLQKVKSHFSRTNARASDAASEIARLNGLDASGVEATATVHPSIRQGEDEVDLEFLRRLARDLGFEVFVRGKALMFRTPADEETELLTFQWGRNLVSFTPRLSTSAQVSEVRVRGWNPATKERIEGKATVADLKGLAGGVSGAEQAGSGGEPVVRSIEDRPVFSREEADALARAELNRLNDGFITGTGETIGMPELRPGITVAIQGIGTRFSGRYYVKGARHSLGDSGYRTTFEVRRNALGSL” here?
The value was “not soluble”.

For “VTNSTDGRADGRLRVVVLGSTGSIGTQALQVIADNPDRFEVVGLAAGGAHLDTLLRQRAQTGVTNIAVADEHAAQRVGDIPYHGSDAATRLVEQTEADVVLNALVGALGLRPTLAALKTGARLALANKESLVAGGSLVLRAARPGQIVPVDSEHSALAQCLRGGTPDEVAKLVLTASGGPFRGWSAADLEHVTPEQAGAHPTWSMGPMNTLNSASLVNKGLEVIETHLLFGIPYDRIDVVVHPQSIIHSMVTFIDGSTIAQASPPDMKLPISLALGWPRRVSGAAAACDFHTASSWEFEPLDTDVFPAVELARQAGVAGGCMTAVYNAANEEAAAAFLAGRIGFPAIVGIIADVLHAADQWAVEPATVDDVLDAQRWARERAQRAVSGMASVAIASTAKPGAAGRHASTLERS”, which “soluble on expression in E. coli” value is on record?
Its value is “soluble”.

For “MGSDKIHHHHHHMRINPGEITKVLEEKIKSFEEKIDLEDTGKVIQVGDGIARAYGLNKVMVSELVEFVETGVKGVAFNLEEDNVGIIILGEYKDIKEGHTVRRLKRIIEVPVGEELLGRVVNPLGEPLDGKGPINAKNFRPIEIKAPGVIYRKPVDTPLQTGIKAIDSMIPIGRGQRELIIGDRQTGKTAIAIDTIINQKGQGVYCIYVAIGQKKSAIARIIDKLRQYGAMEYTTVVVASASDPASLQYIAPYAGCAMGEYFAYSGRDALVVYDDLSKHAVAYRQLSLLMRRPPGREAYPGDIFYLHSRLLERAVRLNDKLGGGSLTALPIVETQANDISAYIPTNVISITDGQIYLEPGLFYAGQRPAINVGLSVSRVGGSAQIKAMKQVAGMLRIDLAQYRELETFAQFATELDPATRAQIIRGQRLMELLKQEQYSPMPVEEQVVVLFAGVRGYLDDLPVEEVRRFEKEFLRFMHEKHQDILDDIKTKKELTSETEEKLKKAIEEFKTTFRV”, which “soluble on expression in E. coli” value is on record?
Its value is “not soluble”.

For “KEATWVTDKPLTLKIHMHFRDKWVWDENWPVAKESFRLTNVKLQSVANKAATNSQEQFNLMMASGDLPDVVGGDNLKDKFIQYGQEGAFVPLNKLIDQYAPHIKAFFKSHPEVERAIKAPDGNIYFIPYVPDGVVARGYFIREDWLKKLNLKPPQNIDELYTVLKAFKEKDPNGNGKADEVPFIDRHPDEVFRLVNFWGARSSGSDNYMDFYIDNGRVKHPWAETAFRDGMKHVAQWYKEGLIDKEIFTRKAKAREQMFGGNLGGFTHDWFASTMTFNEGLAKTVPGFKLIPIAPPTNSKGQRWEEDSRQKVRPDGWAITVKNKNPVETIKFFDFYFSRPGRDISNFGVPGVTYDIKNGKAVFKDSVLKSPQPVNNQLYDMGAQIPIGFWQDYDYERQWTTPEAQAGIDMYVKGKYVMPGFEGVNMTREERAIYDKYWADVRTYMYEMGQAWVMGTKDVDKTWDEYQRQLKLRGLYQVLQMMQQAYDRQYKN”, which “soluble on expression in E. coli” value is on record?
The value was “soluble”.

Which “soluble on expression in E. coli” value does the source give for “PGSIWAKAIEHANEERKKPGADGRGDAFCYFVGSRAAGKSTLLNRFLYPTRAEVPKPSEGIEYTYARKPAAFDHEKKDLAHIWEVGGSQEFAEEIVNSDQLFLTAKQVTTAVVVIVVDLSDPAGVLPTLLYWVEQVKKKLGSTYEKFEKKGLQLPEQLRQRAKSKLYSANEDKDTVYHSGISLVIAATKYDAFKNQDPEVKKVMSRVLRYIAHAHGAFLCYLSGLHGASEGSGAEDAALLDNFTRLMNHLIFTGLEKKPVLKMQPQIDHTGPIMVPAGFDTFKSVGRPRSQGEGTVAGGLAEWRELFEKMFPGVREKEAKMSAKGAKFVIPEQYKEEEVDAVRQRKVTDLENFRKEQAAAVEAAKKKALMAKAQQAEAAAKK” here?
Its value is “not soluble”.

For “GLNHMTARYLREEHHMFRAAFRKFLEKEAYPHYNDWEKRGIIPRSFWAKMGENGFLCPWVDEKYGGLNADFAYSVVINEELEKVGSSLVGIGLHNDIVTPYIASYGTEEQKQKWLPKCVTGELITAIAMTEPGAGSDLANISTTAVKDGDYYIVNGQKTFITNGIHADLIVVACKTDPQAKPPHRGISLLVVERDTPGFTRGRKLEKVGLHAQDTAELFFQDAKVPAYNLLGEEGKGFYYLMEKLQQERLVVAIAAQTAAEVMFSLTKQYVKQRTAFGKRVSEFQTVQFRLAEMATEIALGRTFVDRVIEEHMAGKQIVTEVSMAKWWITEMAKRVAAEAMQLHGGYGYMEEYEIARRYRDIPVSAIYAGTNEMMKTIIARQLDL”, which “soluble on expression in E. coli” value is on record?
The value was “soluble”.

With “MGSDKIHHHHHHMQNPPPPFNQNHLLAALPPAELERLKPHLELVHMPLGDVLCESGGRLSYVYFPTSAIISLHYILENGSSSEVAGVGNEGLLGISLFMGGENTPTWATVQTAGYCYRLKGPLLLQEFNQGGPLQRVLLRYTQALITQISQTAVCNRHHTIEQQLCRWLLLTLDRLNSQELVMTQELIASMLGVRREGITEAAGKLQQAEIIRYRRGHITVLNRAGLEGHVCECYEVVKKEFERLFRDVKKS” as the sequence, how does the “soluble on expression in E. coli” value read?
Its value is “not soluble”.

Which “soluble on expression in E. coli” value does the source give for “MSLDGQGEAVVEGHEAALLLSESRASVDPELRSAIATLPESMRRVALYHFGWQHADGTPAAGNAGKAIRPALVLTAAAALGGPGARAAAVRAAAAVELVHNFTLLHDDVMDRDATRRHRPTAWTVFGDADAILAGDALQALALRLFAADPHPASAAAATRLADCVMELCEGQHADTAMERRPPDEVTLDETLVMAEAKTGALLGCACAVGALYAGAATEDVEALDAFGREAGMAFQLIDDVIGIWGDPRHTGKPAGADLAARKKSLPVVAALTSGTPAAAELAELYTGPYDENKEDLERTALAVERAGGRDWAQAQAADRMARAMQELARAVPEPEAAGGLLALAEFVTRRSTEGHHHHHH” here?
The value was “soluble”.

Which “soluble on expression in E. coli” value does the source give for “LKDTLHNSELDDAERSSSDINNLFHSKPVKDISALDLNASLGNFQEIIIYDEHNNKLFETSNDNTVRVEPGYEHRYFDRVIKKRYKGIEYLIIKEPITTQDFKGYSLLIHSLENYDNIVKS” here?
The value was “not soluble”.

With “MMVVNIKMQQMKSQFIQYNDSNNKVLYQKCKPVADIQNAEIQNIITEMHEKMQGNGIGLAANQIGYPYQIFMIEFDSSNARYPFSFDSVPYQVFINPKITKASKQRVSFWHGCLSALGEKRGKLATYKEIEYEAYNQHGEKITGKLDSIAAIIFQHEFNHLLGSVYVDFDTEYIDNEELQAKFASGELKPYQECGEEVPLLLEKYQIGKNI” as the sequence, how does the “soluble on expression in E. coli” value read?
The value was “not soluble”.

With “MGSDKIHHHHHHMNSGEYKYIWQASDWPNWRFDLAALAEPMAEVSRAQGLLMGRLADVGMALRDQASLAALTEDVVKTSEIEGEQLNVESVRSSIARRLGVDIGALAPVDRHVEGVVEMVLDATANCQALVSRERLFGWHAALFPTGYSGLSKINVGGWRDDATGPMQVVSGPIGRQRVHFEAPPADRLETETSRFLDWLNGTLNEPPLLKAGLGHLWFVTLHPFDDGNGRIARAIGDLLLARADGSPQRFYSLSAQIQRERKAYYDILERTQKRSMDVTEWLAWFLDTLHRAVDQAQHTLDAVLTKARFWQRWATTPLNERQVKLLNKLLDGFEGKLTSSKWAAIAKCSPDTALRDINDLLTRGVLRKSDAGGRSTSYELNDLPE” as the sequence, how does the “soluble on expression in E. coli” value read?
Its value is “not soluble”.

For “MSLAKLTINDIAKKAKTSKTTVSFYLNGKFDKMSPDTKRRIEQVIEETNYSPNIMARSLKLKKSNLIGVVVADITNPFSSNIVKGIGEITRRKGYQILVGSTNLDYYNEEEYFKKMLDMGVDGFIVQPTKNFDKLYPAIKNKGKKIVVLDSVSSRYTGKWVKTNNYEIVYEAVLKLAEKGYEEFILVTEAPDKLAARMERKTGFEDAVNKINCKSFIEIINENTEVDEIAEMLKINISNNKKTVIFAINGKILQKVFKAVKMEGFDVPNHVGIIGFDKWDWTMYASPSVTTIDQPTYEEGKYAAKMLIEMIEENDDFYKSEVFDCNINWEESTDEGHHHHHH”, which “soluble on expression in E. coli” value is on record?
The value was “soluble”.
